Laboratory results from patent US20060015952A1, “Screening assays and methods of tumor treatment” (GENENTECH, INC., priority 2003, published 2006).
Marks after values point to notes of the source that are not given here.

Columns and labels:
[1] = biological target: T1, porcine, platelet-derived TGF-beta2 (Sus scrofa, UniProt P09858); test: Immunoprecipitation of 125I-TGF-beta2; assay type: binding; settings: 2 μg purified monoclonal antibody
T1 construct: porcine, platelet-derived ^125I-TGF-beta2; purchased R & D Systems; host or cells: porcine platelets
T1 sequence (P09858 303-414 limits assumed): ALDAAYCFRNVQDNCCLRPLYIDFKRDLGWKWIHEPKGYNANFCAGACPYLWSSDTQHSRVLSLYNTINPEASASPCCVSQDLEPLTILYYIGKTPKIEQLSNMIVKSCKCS
Experimental: (§1) The specificity of anti-TGF-beta monoclonal antibodies was also evaluated by their ability to immunoprecipitate ^125I-rTGF-beta1 or porcine, platelet-derived ^125I-TGF-beta2 (R & D Systems, Minneapolis, Minn.; specific activity 103.4 μCi/μg). Two μg of purified monoclonal antibody was incubated with 5×10^4 CPM of ^125I-rTGF-beta1 or ^125I-TGF-beta2 for two hours at 22° C. The immunocomplexes were pelleted with protein A-SEPHAROSE™ bead-formed agarose-based gel filtration matrix (Repligen, Cambridge, Mass.) coated with rabbit anti-mouse IgG (Boehringer Mannheim Biochemicals, Indianapolis, Ind.) and subsequently washed 3× with PBST. The complexes were dissociated from the protein A-SEPHAROSE™ bead-formed agarose-based gel filtration matrix with reducing sample buffer and electrophoresed into 12% SDS-polyacrylamide gel (SDS-PAGE) and exposed to autoradiography.

TGF-beta1 = biological target: T2, TGF-beta1 (Homo sapiens, UniProt P01137); test: Affinity determination, solid-phase radioimmunoassay / competitive inhibition, Scatchard analysis; assay type: binding; settings: competitive inhibition assay
T2 construct: made in house
T2 sequence (P01137 279-390 limits assumed): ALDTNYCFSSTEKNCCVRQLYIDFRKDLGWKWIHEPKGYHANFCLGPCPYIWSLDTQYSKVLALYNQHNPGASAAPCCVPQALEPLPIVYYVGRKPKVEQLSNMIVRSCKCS
Experimental: The solid-phase radioimmunoassay procedure described by Mariani et al, J. Immunol. Methods, 71: 43 (1984) was used to determine the affinities of the TGF-beta-specific monoclonal antibodies. Briefly, purified anti-TGF-beta monoclonal antibodies were coated on IMMUNLON™ 2 “REMOVAWELL”™ strips in pH 9.6 carbonate buffer for 18 hours at 4° C. The wells were washed and blocked as described above. 40,000 CPM/well of either ^125I-rTGF-beta1 or porcine ^125I-TGF-beta2 (R & D Systems), in 50 μl PBSG, was added to 2-fold serial dilutions of non-labeled rTGF-beta1 or porcine TGF-beta2 ranging from 2500 to 9.7 ng/well, in 50 μl PBSG. The resulting mixture was incubated for 18 hours at 4° C. The wells were washed and counted as described above and the affinity constants determined by Scatchard analysis (Munson and Pollard, Anal. Biochem., 107: 220 (1980)), which yields similar results as the non-linear regression analysis of Antoni and Mariani, J. Immunol. Meth., 83: 61 (1985).

[2] = biological target: T3, TGF-beta1 dimer (nonreduced) form (Homo sapiens, UniProt P01137); test: Immunoblot analysis with rTGF-beta1; assay type: binding
T3 construct: made in house
T3 sequence (P01137 279-390 limits assumed): as above
Experimental: One μg/lane of rTGF-beta1 was electrophoresed in 12% SDS-PAGE using non-reducing sample buffer to determine the reactivities of the various monoclonal antibodies with the dimer forms of rTGF-beta1. The peptides were transblotted onto nitrocellulose paper and probed with the appropriate monoclonal antibody conjugated with HRP. Bound antibody was visualized using the insoluble substrate 4-chloro-1-naphthol (Kirkegaard and Perry, Gathersburg, Md.). The reaction was stopped after 15 minutes by exhaustive washing with distilled water and the immunoblots were dried and photographed.

4T1 tumor cells = test: 4T1 mouse mammary carcinoma model; assay type: in vivo
Experimental: In a first set of experiments, 4T1 cells were derived from a single spontaneously arising mammary tumor from a BALB/cfC3H mouse. Primary 4T1 tumor cells were injected into mammary fat pads of immunocompetent BALB/c mice One week after injection, palpable primary tumors were observed. The tumor spontaneously metastasized into the lung (about two week after injection), liver and spleen (about three weeks after injection) and bone (between about 4 and 5 weeks after injection).
The animals were treated with 15 mg/kg, 25 mg/kg and 43 mg/kg doses of an anti-TGF-β antibody (2G7). Tests were carried out at day 0, 1, 2, and 1 and 2 weeks after injection of cancer cells.

F2-1282 tumor cell line = test: Trastuzumab-sensitive Her2+ breast cancer mouse model; assay type: in vivo; settings: 25 mg/kg at day 0
Experimental: (§2) Epithelial cells from trastuzumab-sensitive (F2-1282) and trastuzumab-resistant (Fo5) tumor cell lines were injected into mammary fat pads of immunocompetent mice.

Fo5 tumor cell line = test: Trastuzumab-resistant Her2+ breast cancer mouse model; assay type: in vivo; settings: 25 mg/kg at day 0
Experimental: as §2

Her2+ epithelial cells = test: Metastasis from Her2+ epithelial cells (non-surface lung tumors); assay type: in vivo, mouse
Experimental: as §2
Metastasis from such cells produces non-surface lung tumors (images not shown), the incidence and growth of which are not inhibited by anti-TGF-β antibody treatment.

PyMT tumors = test: PyMT tumor mouse model of breast cancer; assay type: in vivo; settings: relative to IgG control
Experimental: This is a mouse model of breast cancer caused by expression of the polyoma middle T oncoprotein (PyMT) in the mammary epithelium. Primary tumor cells from PyMT tumors were injected (2 million or 5 million cells) into the mammary fat pad of a recipient mouse. The tumor developed was then passaged in a large number of further mice.

B16-F10 = test: Mouse model of metastatic melanoma, B16-F10 subline; assay type: in vivo; settings: about 30 mg/kg
Experimental: (§3) This study used B16-F10 and B16-BL6 metastatic melanoma sublines, subcutaneously injected into immunocompetent mice, to test the effect of anti-TGF-β antibodies (2G7) on primary and secondary melanoma. In particular, C57Black 6 mice were injected subcutaneously with 500,000 tumor cells. The primary tumor developed was removed at day 14, and the mice were sacrificed around day 28. The anti-TGF-β antibody concentration was approximately 30 mg/kg. The B16-F10 subline is known to be able to colonize bone if introduced into the bone by direct injection (not as a result of subcutaneous injection). The B16-BL6 subline is metastatic to the lung.

B16-BL6 = test: Mouse model of metastatic melanoma, B16-BL6 subline; assay type: in vivo; settings: about 30 mg/kg
Experimental: as §3

[3] = tested on: B16-F10 and B16-BL6 metastatic melanoma sublines; test: Mouse model of metastatic melanoma, secondary lung tumors; assay type: in vivo; settings: approximately 30 mg/kg
Experimental: as §3

rTGF-beta1 = rTGF-beta1 (Homo sapiens, UniProt P01137); test: Immunoprecipitation of 125I-rTGF-beta1; assay type: binding; set-up: made in house; settings: 2 μg purified monoclonal antibody
rTGF-beta1, sequence (P01137 279-390 limits assumed): as above
Experimental: as §1

[4] = early treatment (5 weeks after injection of cells)
[5] = mice injected with tumor cells, relative to mice with tumors treated with control antibodies
[6] = mice without tumor cells, relative to control mice without tumors

B1: 2G7: murine anti-TGF-beta monoclonal antibody; VL and VH SEQ ID Nos. 1 and 2 (antibody, listed as Mus musculus, V domains shown)
VH: QVXLXQSGAELVRPGTSVKVSCKASGYAFTNYLIEWVKQRPGQGLEWIGVNNPGSGGSNYNEKFKGKATLTADKSSSTAYMQLSSLTSDDSAVYFCARSGGFYFDYWGQGTTQSPSPQPKRRAH
VL: DIMMTQSPSSLAVSAGEKVTMSCKSSQSVLYSSNQKNYLAWYQQKPGQSPKLLIYWASTRESGVPDRFTGSGSGTDFTLTISSVQAEDLAVYYCHQYLSSDTFGGGTKLEIKRTVA
modifications: not fully specified; Xaa 3, 5 Unknown amino acid
- immunoprecipitation of 125I-TGF-beta2 (autoradiograph) [1]: immunoprecipitated ^125I-TGF-beta2 to any measurable degree
- affinity of interaction between TGF-beta1 and the monoclonal antibody (TGF-beta1): 1.2e+08 L/mol
- band strength in indirect immunoblot ([2]; nonreduced TGF-beta1 dimer): much stronger band than either 4A11 or 12H5
- reactivity in indirect immunoblot with TGF-beta1 dimer ([2]; nonreduced form): reacted
- results of 25-mg/kg dose versus 15-mg/kg dose (4T1 tumor cells; 25 mg/kg vs 15 mg/kg, data not shown): better results than the 15-mg/kg dose
- results of 25-mg/kg versus 43-mg/kg doses (4T1 tumor cells; 25 mg/kg vs 43 mg/kg): no significant difference
- size of primary tumor (4T1 tumor cells; 43-mg/kg dose): transiently decreased
- systemic levels of VEGF (4T1 tumor cells; 43-mg/kg dose): reduced
- histology scores (grade and number of lobes affected) of secondary lung tumors (4T1 tumor cells; [4]): decreased
- volume of secondary lung tumors (4T1 tumor cells; [4]): decreased
- weight of secondary lung tumors (4T1 tumor cells; [4]): decreased
- breast tumor-induced bone destruction (4T1 tumor cells; early treatment (5 weeks after injection of tumor cells)): inhibited certain parameters of breast tumor-induced bone destruction
- BS/BV (4T1 tumor cells; [5]): −6.6%
- BV/TV (4T1 tumor cells; [5]): +14.3%
- Mineral density (4T1 tumor cells; [5]): +6.3%
- Trabecular number (4T1 tumor cells; [5]): +6.5%**
- Trabecular thickness (4T1 tumor cells; [5]): +7.2%
- BS/BV (4T1 tumor cells; [6]): ns
- BV/TV (4T1 tumor cells; [6]): −4.8%
- Mineral density (4T1 tumor cells; [6]): ns
- Trabecular number (4T1 tumor cells; [6]): −2.8%*
- Trabecular thickness (4T1 tumor cells; [6]): ns
- size of primary tumor (F2-1282 tumor cell line): increased
- systemic VEGF levels (F2-1282 tumor cell line): increased
- size of primary tumor (Fo5 tumor cell line): increased
- systemic VEGF levels (Fo5 tumor cell line): increased
- incidence and growth of non-surface lung tumors (Her2+ epithelial cells): not inhibited
- primary tumor growth (PyMT tumors): decreased
- survival of mice with melanoma (B16-F10): increased
- survival of mice with melanoma (B16-F10; listed as anti-TGF-β antibody): increases
- survival of mice with melanoma (B16-BL6): increased
- survival of mice with melanoma (B16-BL6; listed as anti-TGF-β antibody): increases
- incidence of metastatic lung tumor [3]: significantly decreased
- number of metastatic lung tumor [3]: significantly decreased
- incidence of metastatic lung tumor ([3]; listed as anti-TGF-β antibody): decreases
- number of metastatic lung tumor ([3]; listed as anti-TGF-β antibody): decreases
- immunoprecipitation of 125I-rTGF-beta1 (autoradiograph) (rTGF-beta1): immunoprecipitated equivalent amounts
